T1: ChrR (Escherichia coli, UniProt P0AGE6)
T1 construct: full-length recombinant from E. coli BL21 (DE3), pET28a (His) or pTYB3 (intein), tags removed by thrombin or DTT; untagged WT crystallized; tetramer; residues 4-184 (chain A) and 4-185 (chain B) seen in crystal
T1 sequence (P0AGE6 1-188): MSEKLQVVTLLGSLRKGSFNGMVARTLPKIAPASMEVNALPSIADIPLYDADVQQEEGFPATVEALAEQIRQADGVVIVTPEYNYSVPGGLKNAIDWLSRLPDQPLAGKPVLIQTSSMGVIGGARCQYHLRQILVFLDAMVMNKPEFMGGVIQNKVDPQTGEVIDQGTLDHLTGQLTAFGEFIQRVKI

B1: Escherichia coli ChrR enzyme, wild type (enzyme)
chain: EKLQVVTLLGSLRKGSFNGMVARTLPKIAPASMEVNALPSIADIPLYDADVQQEEGFPATVEALAEQIRQADGVVIVTPEYNYSVPGGLKNAIDWLSRLPDQPLAGKPVLIQTSSMGVIGGARCQYHLRQILVFLDAMVMNKPEFMGGVIQNKVDPQTGEVIDQGTLDHLTGQLTAFGEFIQRVKI
notes: ChrR, quinone reductase with chromate reductase activity, Escherichia coli; the crystal structure models residues 4-184 (chain A) and 4-185 (chain B); The crystallised protein is called untagged; also called ChrR WT; native ChrR; source: E. coli BL21 (DE3), purified (His-Trap nickel or chitin bead column, tag removed, gel filtration on Superdex 200)
B2: ChrR41 (Glu146Thr) (enzyme, Escherichia coli)
chain: EKLQVVTLLGSLRKGSFNGMVARTLPKIAPASMEVNALPSIADIPLYDADVQQEEGFPATVEALAEQIRQADGVVIVTPEYNYSVPGGLKNAIDWLSRLPDQPLAGKPVLIQTSSMGVIGGARCQYHLRQILVFLDAMVMNKPTFMGGVIQNKVDPQTGEVIDQGTLDHLTGQLTAFGEFIQRVKI
notes: ChrR, Escherichia coli, with Glu146Thr; PDB 3SVL is the wild-type parent; source: E. coli BL21 (DE3), pET28a, purified (His-Trap nickel column, tag removed, gel filtration)
B3: ChrR43 (Arg125Met) (enzyme, Escherichia coli)
chain: EKLQVVTLLGSLRKGSFNGMVARTLPKIAPASMEVNALPSIADIPLYDADVQQEEGFPATVEALAEQIRQADGVVIVTPEYNYSVPGGLKNAIDWLSRLPDQPLAGKPVLIQTSSMGVIGGAMCQYHLRQILVFLDAMVMNKPEFMGGVIQNKVDPQTGEVIDQGTLDHLTGQLTAFGEFIQRVKI
notes: ChrR, Escherichia coli, with Arg125Met; PDB 3SVL is the wild-type parent; source: E. coli BL21 (DE3), pET28a, purified (His-Trap nickel column, tag removed, gel filtration)
B4: ChrR21 (Tyr128Asn) (enzyme, Escherichia coli)
chain: EKLQVVTLLGSLRKGSFNGMVARTLPKIAPASMEVNALPSIADIPLYDADVQQEEGFPATVEALAEQIRQADGVVIVTPEYNYSVPGGLKNAIDWLSRLPDQPLAGKPVLIQTSSMGVIGGARCQNHLRQILVFLDAMVMNKPEFMGGVIQNKVDPQTGEVIDQGTLDHLTGQLTAFGEFIQRVKI
notes: ChrR, Escherichia coli, with Tyr128Asn; PDB 3SVL is the wild-type parent; source: E. coli BL21 (DE3), pET28a, purified (His-Trap nickel column, tag removed, gel filtration)
B5: ChrR42 (Tyr85Asn) (enzyme, Escherichia coli)
chain: EKLQVVTLLGSLRKGSFNGMVARTLPKIAPASMEVNALPSIADIPLYDADVQQEEGFPATVEALAEQIRQADGVVIVTPEYNNSVPGGLKNAIDWLSRLPDQPLAGKPVLIQTSSMGVIGGARCQYHLRQILVFLDAMVMNKPEFMGGVIQNKVDPQTGEVIDQGTLDHLTGQLTAFGEFIQRVKI
notes: ChrR, Escherichia coli, with Tyr85Asn; PDB 3SVL is the wild-type parent; source: E. coli BL21 (DE3), pET28a, purified (His-Trap nickel column, tag removed, gel filtration)

Experiments:
ChrR = target: T1, ChrR; assay: X-ray crystallography, […] Å; format: binding; conditions: bound at active site, non-covalent; crystals at PEG8000, NaCl, calcium acetate
[1] = target: the molecule itself; assay: crystal structure; untagged wild type ChrR at 26 mg/mL, sitting drop vapor diffusion, PEG8000, sodium chloride, calcium acetate; 2.2 Å, space group P6(3)22; two molecules (a homo-dimer) in the asymmetric unit, tetramer formed by two symmetry related dimers
[2] = target: the molecule itself; assay: SEC; analytic Superdex 200 10/300 column, 0.5 mL per min; proteins pre-incubated with FMN (1 mM, 2 h); various protein concentrations, including those used for measuring the enzyme activity

Row | Molecule | stoichiometry N [2] | also measured
1 | Cc1cc2nc3c(=O)[nH]c(=O)nc-3n(C[C@H](O)[C@H](O)[C@H](O)COP(=O)(O)O)c2cc1C [FMN, flavin mononucleotide] | – | X-ray crystallography, 2.2 Å (ChrR): FMN is anchored by several hydrogen bonds to a typical strand-loop-helix nucleotide-binding motif
2 | B1 | – | stoichiometry N [1]: 4
3 | B2 | 4 | –
4 | B3 | 4 | –
5 | B4 | 4 | –
6 | B5 | 4 | –
